According to paper PMC5453625:

Legend:
[1] = target: human nectin-1 ectodomain (amino acids 30-335) (human) (UniProt Q15223); assay: SPR; BIAcore 3000, CM5 chip; […]) immobilised; […]; 25 C; HBS-EP (10 mM HEPES pH 7.4, 150 mM NaCl, 3 mM EDTA, 0.005% Tween 20); […]
[2] = target: swine nectin-1 ectodomain (amino acids 30-335) (swine) (UniProt Q9GL76); assay: as above
Chain of UniProt Q9GL76 (Q9GL76 30-335): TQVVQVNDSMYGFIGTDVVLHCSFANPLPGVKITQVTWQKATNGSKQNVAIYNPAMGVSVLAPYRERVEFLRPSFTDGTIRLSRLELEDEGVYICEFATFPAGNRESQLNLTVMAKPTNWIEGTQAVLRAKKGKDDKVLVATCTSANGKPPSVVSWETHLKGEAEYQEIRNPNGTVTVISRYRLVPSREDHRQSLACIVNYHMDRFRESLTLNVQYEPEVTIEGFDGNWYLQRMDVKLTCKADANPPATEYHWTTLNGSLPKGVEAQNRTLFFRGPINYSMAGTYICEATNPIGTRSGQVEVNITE

Chain of UniProt Q15223 (Q15223 30-335): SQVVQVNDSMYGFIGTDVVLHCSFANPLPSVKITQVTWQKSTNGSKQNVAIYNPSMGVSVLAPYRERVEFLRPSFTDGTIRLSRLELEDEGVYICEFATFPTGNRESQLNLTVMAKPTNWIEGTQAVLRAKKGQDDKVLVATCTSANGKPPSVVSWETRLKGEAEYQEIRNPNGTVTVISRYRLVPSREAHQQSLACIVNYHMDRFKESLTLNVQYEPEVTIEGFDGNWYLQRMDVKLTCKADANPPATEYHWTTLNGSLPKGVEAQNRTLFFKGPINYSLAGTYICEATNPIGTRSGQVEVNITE

PRV gD284 (pseudorabies virus glycoprotein D, residues 1-284, lacking the membrane-proximal loop) (domain or fragment)
Kd [1]: 16.1 nM | koff [1]: 0.0117 s⁻¹ | kon [1]: 725000 M⁻¹ s⁻¹ | Kd [2]: 18.4 nM | koff [2]: 0.0211 s⁻¹ | kon [2]: 1.15e+06 M⁻¹ s⁻¹
